According to PMC1852638:
Read-outs that look alike come from different tables or passages of the source.

Tests used:
[1] = molecular target: myosin 5 heavy meromyosin (HMM) (UniProt Q99104); experiment: inhibition of actin-activated MgATPase
[2] = molecular target: myosin 5 heavy meromyosin (HMM) (UniProt Q99104); experiment: inhibition of actin-activated MgATPase; remark: listed apart in the source

Ki [1]: 750 nM | Ki [2]: 530 nM
Substance: glutathione S-transferase (GST)-47 kDa GTD fusion protein, dimer (from UniProt Q99104 1-1853) (domain or fragment)
